Measured values taken from publication PMC5321760.
One block for each substance: values may come before it.

Assays:
PDI–CACA (human) = PDI–CACA (human) (UniProt P07237); test: pull-down; kinetic trapping: DTT-reduced FLAG-/SBP-tagged PDI or ERp57 variant (500 ug) added to 5 ml recalcified platelet-rich plasma with GPRP, collagen and thrombin, 3 min at 23°, stopped with hirudin and 20 mM NEM; streptavidin-agarose, washes with 500 mM NaCl and 1.5% Triton X-100, eluted with biotin; non-reducing and reducing 1D or 2D SDS-PAGE, Western blot for FLAG and vitronectin; the complex is a mixed disulfide
[1] = target: plasma vitronectin (human (endogenous in plasma; the donor is not stated, anti-human vitronectin antibodies were used))
[2] = target: αIIbβ3 integrin (immobilized) (UniProt P08514); test: ELISA; solid-phase binding: αVβ3 or αIIbβ3 coated on microtiter wells (250 ng per well), blocked with BSA; recalcified plasma treated with PDI-CCCC, PDI-AAAA, ERp57-CCCC or BSA and 0.3 mM DTT for 10 min at 37 °C, stopped with 20 mM NEM, diluted 1:100, 1 h; bound vitronectin detected with rabbit anti-vitronectin and anti-rabbit IgG-HRP
[3] = target: αVβ3 integrin (immobilized) (UniProt P06756); test: as above
Sequence of UniProt P06756 (P06756 31-1048, chain 1 of 2): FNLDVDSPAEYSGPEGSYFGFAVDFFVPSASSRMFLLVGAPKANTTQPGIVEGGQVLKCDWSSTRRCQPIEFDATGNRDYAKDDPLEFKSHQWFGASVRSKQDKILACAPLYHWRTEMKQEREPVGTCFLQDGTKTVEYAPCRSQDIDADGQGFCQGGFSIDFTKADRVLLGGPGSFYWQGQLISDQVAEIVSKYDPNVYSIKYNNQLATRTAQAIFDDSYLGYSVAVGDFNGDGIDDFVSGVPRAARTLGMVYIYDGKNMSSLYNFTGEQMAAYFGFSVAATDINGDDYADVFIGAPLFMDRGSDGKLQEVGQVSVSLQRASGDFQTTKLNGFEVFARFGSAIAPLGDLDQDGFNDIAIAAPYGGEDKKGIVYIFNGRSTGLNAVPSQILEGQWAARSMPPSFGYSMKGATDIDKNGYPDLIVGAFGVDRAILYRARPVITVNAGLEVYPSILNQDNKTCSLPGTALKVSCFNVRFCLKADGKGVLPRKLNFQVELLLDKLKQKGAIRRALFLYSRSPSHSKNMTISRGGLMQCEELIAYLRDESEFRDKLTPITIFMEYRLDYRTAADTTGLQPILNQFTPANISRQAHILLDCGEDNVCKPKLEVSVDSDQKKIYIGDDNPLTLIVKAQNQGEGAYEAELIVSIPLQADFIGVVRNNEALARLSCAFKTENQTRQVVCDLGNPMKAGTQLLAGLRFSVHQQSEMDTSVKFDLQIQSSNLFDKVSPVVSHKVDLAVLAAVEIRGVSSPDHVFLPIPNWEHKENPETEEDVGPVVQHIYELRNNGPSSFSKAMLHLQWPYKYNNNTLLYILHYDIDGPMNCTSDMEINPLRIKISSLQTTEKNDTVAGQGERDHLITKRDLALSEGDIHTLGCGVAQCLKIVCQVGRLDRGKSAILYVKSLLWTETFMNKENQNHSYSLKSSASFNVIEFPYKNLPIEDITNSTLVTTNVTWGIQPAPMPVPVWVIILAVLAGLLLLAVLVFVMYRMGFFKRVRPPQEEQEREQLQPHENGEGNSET
Sequence of UniProt P06756 (P05106 27-718, chain 2 of 2, further chain): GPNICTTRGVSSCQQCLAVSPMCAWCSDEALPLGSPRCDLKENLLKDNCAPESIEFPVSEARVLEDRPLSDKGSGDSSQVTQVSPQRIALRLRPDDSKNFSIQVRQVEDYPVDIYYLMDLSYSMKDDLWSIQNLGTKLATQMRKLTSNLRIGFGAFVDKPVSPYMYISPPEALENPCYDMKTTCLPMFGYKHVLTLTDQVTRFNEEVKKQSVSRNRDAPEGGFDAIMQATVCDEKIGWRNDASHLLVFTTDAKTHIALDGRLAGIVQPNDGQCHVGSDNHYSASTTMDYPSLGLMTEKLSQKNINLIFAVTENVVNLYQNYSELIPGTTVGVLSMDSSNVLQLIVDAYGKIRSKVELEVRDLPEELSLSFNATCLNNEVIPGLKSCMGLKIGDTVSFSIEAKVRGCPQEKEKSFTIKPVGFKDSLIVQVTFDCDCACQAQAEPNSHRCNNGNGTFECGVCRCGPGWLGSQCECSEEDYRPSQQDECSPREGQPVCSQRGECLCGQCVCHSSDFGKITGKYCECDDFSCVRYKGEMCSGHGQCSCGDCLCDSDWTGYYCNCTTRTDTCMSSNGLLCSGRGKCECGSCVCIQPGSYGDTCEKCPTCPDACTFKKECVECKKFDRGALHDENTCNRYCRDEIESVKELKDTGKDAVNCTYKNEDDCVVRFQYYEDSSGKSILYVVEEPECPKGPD

stoichiometry N (PDI–CACA (human)): 1
Substance: plasma vitronectin (natural protein)

PEG5000-maleimide incorporated into plasma vitronectin after reduction by the enzyme in NEM-pretreated platelet-poor plasma (0 to 5 min at 1 uM; 0.25 to 2.5 uM for 5 min), gel shift on Western blot (moles per mole of vitronectin) [1]: 3.6
Substance: PDI–CCCC (wild type protein disulfide isomerase) (from UniProt P07237 18-508) (enzyme)

fold increase in bound vitronectin at the highest PDI concentration [2]: > 3 fold
fold increase in bound vitronectin at the highest PDI concentration (15 μM) [3]: 4 fold
Substance: PDI-reduced plasma vitronectin (natural protein)
